# Residue numbers refer to the chain shown, from its start.
# B1: muMNACEP (antibody, V domains shown)
# VH: EVKLMESGGGLVQPGGSLKLSCAASGFTFSTYTMSWARQTPEKRLEWVAYISKGGGSTYYPDTVKGRFTISRDNAKNTLYLQMSSLKSEDTALYYCARGAMYGNDFFYPMDYWGQQTSVTVSS
# VL: DIVLSQSPAIMSASLGEEITLTCSASSSVSYMHWYQQKSGTSPKLLITTTSNLASGVPSRFSGSGSGTFYSLTISSVEAEDAADYYCHQWSSYPWTFGGGTKLEIK
# notes: Murine monoclonal antibody as disclosed in EP1181318; also called murine antibody MNAC13; MNAC13
# B2: ChimMNAC13 (antibody, V domains shown)
# VH: B1 VH
# VL: B1 VL
# notes: Corresponds to muMNACEP but has human constant regions instead of mouse constant regions; also called chimNINAC13; mVHEP/mVLEP
# B3: BXhVH3VL3 (antibody, human IgG1, V domains shown)
# VH: EVQLLESGGGLVQPGGSLRLSCAASGFTFSTYTMSWVRQAPGKRLEWVAYISKGGGSTYYPDTVKGRFTISRDNSKNTLYLQMNSLRAEDTAVYYCARGAMYGNDFFYPMDYWGQGTTVTVSS
# VL: QIVLTQSPATLSLSPGERATLSCSASSSVSYMHWYQQKPGQSPRLLIYTTSNLASGIPSRFSGSGSGTFYTLTISSLEPEDFAVYYCHQWSSYPWTFGGGTKLEIK
# notes: Human IgG1 constant regions (IgG1 expression vectors); also called hVH3/hVL3
# B4: BXhVH2VL7 (antibody, human IgG1, V domains shown)
# VH: B3 VH with A40T, R98K
# VL: B3 VL with F82A, V84D
# notes: Human IgG1 constant regions (IgG1 expression vectors); COS-7 supernatant; also called hVH2/hVL7
# B5: BXhVH1VL1 (antibody, human IgG1, V domains shown)
# VH: B3 VH with Q3K, A40T, R44G, R98K
# VL: B3 VL with Q1E, S42A, S59A, F69D, Y70F, G99Q
# notes: Human IgG1 constant regions (IgG1 expression vectors); COS-7 supernatant; also called hVH1/hVL1
# B6: BXhVH1VL2 (antibody, human IgG1, V domains shown)
# VH: B3 VH with Q3K, A40T, R44G, R98K
# VL: B3 VL with Q1E, F69D, Y70F, F82A, V84D, G99Q
# notes: Human IgG1 constant regions (IgG1 expression vectors); COS-7 supernatant; also called hVH1/hVL2
# B7: BXhVH1VL3 (antibody, human IgG1, V domains shown)
# VH: B3 VH with Q3K, A40T, R44G, R98K
# VL: B3 VL
# notes: Human IgG1 constant regions (IgG1 expression vectors); COS-7 supernatant; also called hVH1/hVL3
# B8: BXhVH1VL4 (antibody, human IgG1, V domains shown)
# VH: B3 VH with Q3K, A40T, R44G, R98K
# VL: B3 VL with F69D, Y70F, F82A, V84D
# notes: Human IgG1 constant regions (IgG1 expression vectors); COS-7 supernatant; also called hVH1/hVL4
# B9: BXhVH1VL5 (antibody, human IgG1, V domains shown)
# VH: B3 VH with Q3K, A40T, R44G, R98K
# VL: B3 VL with F69D, F82A, V84D, G99Q
# notes: Human IgG1 constant regions (IgG1 expression vectors); COS-7 supernatant; also called hVH1/hVL5
# B10: BXhVH1VL6 (antibody, human IgG1, V domains shown)
# VH: B3 VH with Q3K, A40T, R44G, R98K
# VL: B3 VL with Q1E, R18E, F82A, V84D
# notes: Human IgG1 constant regions (IgG1 expression vectors); COS-7 supernatant; also called hVH1/hVL6
# B11: BXhVH1VL7 (antibody, human IgG1, V domains shown)
# VH: B3 VH with Q3K, A40T, R44G, R98K
# VL: B3 VL with F82A, V84D
# notes: Human IgG1 constant regions (IgG1 expression vectors); COS-7 supernatant; also called hVH1/hVL7
# B12: BXhVH1VL8 (antibody, human IgG1, V domains shown)
# VH: B3 VH with Q3K, A40T, R44G, R98K
# VL: B3 VL with R18E, P39S, Q41T, F82A, V84D
# notes: Human IgG1 constant regions (IgG1 expression vectors); COS-7 supernatant; also called hVH1/hVL8
# B13: BXhVH2VL1 (antibody, human IgG1, V domains shown)
# VH: B3 VH with A40T, R98K
# VL: B3 VL with Q1E, S42A, S59A, F69D, Y70F, G99Q
# notes: Human IgG1 constant regions (IgG1 expression vectors); COS-7 supernatant; also called hVH2/hVL1
# B14: BXhVH2VL2 (antibody, human IgG1, V domains shown)
# VH: B3 VH with A40T, R98K
# VL: B3 VL with Q1E, F69D, Y70F, F82A, V84D, G99Q
# notes: Human IgG1 constant regions (IgG1 expression vectors); COS-7 supernatant; also called hVH2/hVL2
# B15: BXhVH2VL3 (antibody, human IgG1, V domains shown)
# VH: B3 VH with A40T, R98K
# VL: B3 VL
# notes: Human IgG1 constant regions (IgG1 expression vectors); COS-7 supernatant; also called hVH2/hVL3
# B16: BXhVH2VL4 (antibody, human IgG1, V domains shown)
# VH: B3 VH with A40T, R98K
# VL: B3 VL with F69D, Y70F, F82A, V84D
# notes: Human IgG1 constant regions (IgG1 expression vectors); COS-7 supernatant; also called hVH2/hVL4
# B17: BXhVH2VL5 (antibody, human IgG1, V domains shown)
# VH: B3 VH with A40T, R98K
# VL: B3 VL with F69D, F82A, V84D, G99Q
# notes: Human IgG1 constant regions (IgG1 expression vectors); COS-7 supernatant; also called hVH2/hVL5
# B18: BXhVH2VL6 (antibody, human IgG1, V domains shown)
# VH: B3 VH with A40T, R98K
# VL: B3 VL with Q1E, R18E, F82A, V84D
# notes: Human IgG1 constant regions (IgG1 expression vectors); COS-7 supernatant; also called hVH2/hVL6
# B19: BXhVH2VL8 (antibody, human IgG1, V domains shown)
# VH: B3 VH with A40T, R98K
# VL: B3 VL with R18E, P39S, Q41T, F82A, V84D
# notes: Human IgG1 constant regions (IgG1 expression vectors); COS-7 supernatant; also called hVH2/hVL8
# B20: BXhVH3VL1 (antibody, human IgG1, V domains shown)
# VH: B3 VH
# VL: B3 VL with Q1E, S42A, S59A, F69D, Y70F, G99Q
# notes: Human IgG1 constant regions (IgG1 expression vectors); COS-7 supernatant; also called hVH3/hVL1
# B21: BXhVH3VL2 (antibody, human IgG1, V domains shown)
# VH: B3 VH
# VL: B3 VL with Q1E, F69D, Y70F, F82A, V84D, G99Q
# notes: Human IgG1 constant regions (IgG1 expression vectors); COS-7 supernatant; also called hVH3/hVL2
# B22: BXhVH3VL4 (antibody, human IgG1, V domains shown)
# VH: B3 VH
# VL: B3 VL with F69D, Y70F, F82A, V84D
# notes: Human IgG1 constant regions (IgG1 expression vectors); COS-7 supernatant; also called hVH3/hVL4
# B23: BXhVH3VL5 (antibody, human IgG1, V domains shown)
# VH: B3 VH
# VL: B3 VL with F69D, F82A, V84D, G99Q
# notes: Human IgG1 constant regions (IgG1 expression vectors); COS-7 supernatant; also called hVH3/hVL5
# B24: BXhVH3VL6 (antibody, human IgG1, V domains shown)
# VH: B3 VH
# VL: B3 VL with Q1E, R18E, F82A, V84D
# notes: Human IgG1 constant regions (IgG1 expression vectors); COS-7 supernatant; also called hVH3/hVL6
# B25: BXhVH3VL7 (antibody, human IgG1, V domains shown)
# VH: B3 VH
# VL: B3 VL with F82A, V84D
# notes: Human IgG1 constant regions (IgG1 expression vectors); COS-7 supernatant; also called hVH3/hVL7
# B26: BXhVH3VL8 (antibody, human IgG1, V domains shown)
# VH: B3 VH
# VL: B3 VL with R18E, P39S, Q41T, F82A, V84D
# notes: Human IgG1 constant regions (IgG1 expression vectors); COS-7 supernatant; also called hVH3/hVL8
# B27: BXhVH5VL2 (antibody, human IgG1, V domains shown)
# VH: B3 VH with Q3K, A40T
# VL: B3 VL with Q1E, F69D, Y70F, F82A, V84D, G99Q
# notes: Human IgG1 constant regions (IgG1 expression vectors); COS-7 supernatant; also called hVH5/hVL2
# B28: BXhVH5VL4 (antibody, human IgG1, V domains shown)
# VH: B3 VH with Q3K, A40T
# VL: B3 VL with F69D, Y70F, F82A, V84D
# notes: Human IgG1 constant regions (IgG1 expression vectors); COS-7 supernatant; also called hVH5/hVL4
# B29: BXhVH5VL5 (antibody, human IgG1, V domains shown)
# VH: B3 VH with Q3K, A40T
# VL: B3 VL with F69D, F82A, V84D, G99Q
# notes: Human IgG1 constant regions (IgG1 expression vectors); COS-7 supernatant; also called hVH5/hVL5
# B30: BXhVH5VL6 (antibody, human IgG1, V domains shown)
# VH: B3 VH with Q3K, A40T
# VL: B3 VL with Q1E, R18E, F82A, V84D
# notes: Human IgG1 constant regions (IgG1 expression vectors); COS-7 supernatant; also called hVH5/hVL6
# B31: BXhVH5VL7 (antibody, human IgG1, V domains shown)
# VH: B3 VH with Q3K, A40T
# VL: B3 VL with F82A, V84D
# notes: Human IgG1 constant regions (IgG1 expression vectors); COS-7 supernatant; also called hVH5/hVL7
# B32: HuMNACWOv (antibody, V domains shown)
# VH: B3 VH with V37A, R44G, T91S, T118L
# VL: DIVLTQSPSSLSASVGDRVTITCSASSSVSYMHWYQQKPGQAPKLLIYTTSNLASGVPSRFSGSGSGTDYTLTISSLQPEDVATYYCHQWSSYPWTFGGGTKVEIK
# notes: Variant of HuMNACWO whose heavy chain CDR3 is replaced with that of muMNACEP; also called hVHWOv/hVLWO; HuVHWOv/HuVLWO
# Biological target: T1, human TrkA receptor on the cell surface (human, UniProt P04629 33-796)
# Assay: cell-based or functional assay
# T1 sequence (P04629 33-796): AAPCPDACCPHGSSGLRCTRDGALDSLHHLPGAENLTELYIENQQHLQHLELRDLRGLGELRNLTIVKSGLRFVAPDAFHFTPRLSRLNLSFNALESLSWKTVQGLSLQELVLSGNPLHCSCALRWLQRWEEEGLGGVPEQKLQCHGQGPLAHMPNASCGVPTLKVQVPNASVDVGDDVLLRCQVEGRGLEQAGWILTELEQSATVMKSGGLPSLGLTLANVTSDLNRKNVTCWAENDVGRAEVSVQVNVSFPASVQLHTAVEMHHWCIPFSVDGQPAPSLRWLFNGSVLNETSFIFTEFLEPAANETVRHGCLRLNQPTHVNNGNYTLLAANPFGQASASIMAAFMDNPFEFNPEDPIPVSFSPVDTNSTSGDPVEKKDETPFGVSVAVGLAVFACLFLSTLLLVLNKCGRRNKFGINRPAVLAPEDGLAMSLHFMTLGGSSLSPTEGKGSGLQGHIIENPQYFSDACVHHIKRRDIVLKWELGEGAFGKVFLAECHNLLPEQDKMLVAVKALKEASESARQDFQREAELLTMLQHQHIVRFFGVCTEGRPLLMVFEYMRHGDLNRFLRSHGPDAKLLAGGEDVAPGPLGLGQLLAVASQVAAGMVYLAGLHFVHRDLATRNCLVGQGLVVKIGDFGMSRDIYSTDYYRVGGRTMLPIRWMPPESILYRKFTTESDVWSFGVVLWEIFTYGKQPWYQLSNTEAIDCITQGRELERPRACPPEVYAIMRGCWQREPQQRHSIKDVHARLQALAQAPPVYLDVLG
Binder,"Proliferation assay on TF1 cells IC50 (µg/ml), Mean [µg/mL]","Proliferation assay on TF1 cells IC50 (µg/ml), EXP-1 [µg/mL]","Proliferation assay on TF1 cells IC50 (µg/ml), EXP-2 [µg/mL]"
B1,0.54,–,–
B2,–,0.06,0.58
B3,–,0.41,2.38

# Biological target: T1, human TrkA receptor on the cell surface
# Assay: flow cytometry on TF-1 cells, 4 µg/ml
# Set-up: Geo Mean Fluorescence: reference not given here
Binder,Fold Increase [fold],Geo Mean Fluorescence
B2,3.2,11
B4,1.9,6.5
B5,1.7,5.7
B6,1.3,4.6
B7,1.8,6.1
B8,1.5,5.1
B9,1.3,4.5
B10,1.4,4.9
B11,1.5,5.1
B12,1.5,5.2
B13,2.6,9.2
B14,1.8,6.4
B15,3.1,10.8
B16,1.8,6.1
B17,1.8,6.4
B18,1.8,6.4

Binder,Fold Increase [fold],Geo Mean Fluorescence
B19,1.9,6.5
B20,2.5,8.6
B21,2,7.1
B3,3.6,12.6
B22,2,7.1
B23,2,6.9
B24,1.8,6.4
B25,2,7.1
B26,1.9,6.5
B27,2.5,8.6
B28,2.6,9.1
B29,2.4,8.3
B30,2.6,9.1
B31,2.5,8.6
B32,2.6,8.9

# Biological target: T2, TrkA-IgG (UniProt P04629 33-423, limits assumed)
# T2 construct: also called specific antigen TrkA-IgG; not shown: IgG part of the fusion
# Assay: SPR (BIACORE 2000), TrkA-IgG immobilised on CM-5 chip, 'separated 1:1' fit
# Method: Surface plasmon resonance analysis was used to measure the association and dissociation rate constants for binding kinetics of the different antibodies (murine, chimeric, 5 humanised variants) towards TrkA-IgG using BIACORE 2000 (Biacore AB, Uppsala, Sweden). TrkA-IgG was immobilised on a CM-5 sensor chip according to manufacturer's conditions, in a way to achieve an immobilization density of 1100 RU. Each antibody sample was analyzed in antibody concentration ranges of 20-0.63 μg/ml. Calculations from the sensograms were performed by using the BIA evaluation version 3 (1999) software.
# Analysis of the individual sets of sensograms was performed with the BIA evaluation version 3 (1999) software. Among the different models tested to fit the kinetics data, the best fitting was obtained with the “separated 1:1” algorithm. In this model, only a defined range of the early association and dissociation curves was used for the calculation.
# T2 sequence (P04629 33-423 limits assumed): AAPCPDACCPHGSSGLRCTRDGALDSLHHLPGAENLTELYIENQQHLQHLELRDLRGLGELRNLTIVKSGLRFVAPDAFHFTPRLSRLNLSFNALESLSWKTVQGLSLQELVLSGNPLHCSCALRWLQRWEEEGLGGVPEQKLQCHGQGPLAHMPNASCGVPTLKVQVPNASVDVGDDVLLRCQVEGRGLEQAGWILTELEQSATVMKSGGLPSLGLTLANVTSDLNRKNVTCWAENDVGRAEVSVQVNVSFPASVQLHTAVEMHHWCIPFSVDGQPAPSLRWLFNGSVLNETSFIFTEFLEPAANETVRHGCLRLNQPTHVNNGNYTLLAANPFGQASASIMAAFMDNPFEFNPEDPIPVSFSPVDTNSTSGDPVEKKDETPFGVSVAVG
Binder,Kd [pM],koff [s⁻¹],kon [M⁻¹ s⁻¹]
B1,250,0.000167,850000
B2,151,–,–
B3,1450,0.000442,325000
B32,2480,0.00386,1.62e+06
